Data taken from publication PMC6368585, “Chaperone activation and client binding of a 2-cysteine peroxiredoxin” (Nature Communications, 2019).

Assays:
[1] = target: luciferase (thermally unfolded model client) [luciferase: P08659]
[2] = target: T1, luciferase (thermally unfolded model client) (UniProt P08659 1-550 = luciferase); experiment: AUC; analytical ultracentrifugation of mTXNPxred with luciferase (Supplemental Methods); details: both partners purified
T1 construct: luciferase, 63 kDa; cross-links were mapped onto the whole-chain model pdb 1LCI; source: bought: Promega

[3] = target: the molecule itself; experiment: cross-linking; quantitative cross-linking (qCL) with isotopically light or heavy DSS (0.1 mM), each condition (Red or Ox, 30 °C or 42 °C) cross-linked apart and mixed 1:1; log2(H/L) of inter-protein K122/K123 peptide pairs across the dimer-dimer (A-type) interface; decamer to dimers

Chain of luciferase (thermally unfolded model client) [luciferase: P08659] (P08659 whole entry): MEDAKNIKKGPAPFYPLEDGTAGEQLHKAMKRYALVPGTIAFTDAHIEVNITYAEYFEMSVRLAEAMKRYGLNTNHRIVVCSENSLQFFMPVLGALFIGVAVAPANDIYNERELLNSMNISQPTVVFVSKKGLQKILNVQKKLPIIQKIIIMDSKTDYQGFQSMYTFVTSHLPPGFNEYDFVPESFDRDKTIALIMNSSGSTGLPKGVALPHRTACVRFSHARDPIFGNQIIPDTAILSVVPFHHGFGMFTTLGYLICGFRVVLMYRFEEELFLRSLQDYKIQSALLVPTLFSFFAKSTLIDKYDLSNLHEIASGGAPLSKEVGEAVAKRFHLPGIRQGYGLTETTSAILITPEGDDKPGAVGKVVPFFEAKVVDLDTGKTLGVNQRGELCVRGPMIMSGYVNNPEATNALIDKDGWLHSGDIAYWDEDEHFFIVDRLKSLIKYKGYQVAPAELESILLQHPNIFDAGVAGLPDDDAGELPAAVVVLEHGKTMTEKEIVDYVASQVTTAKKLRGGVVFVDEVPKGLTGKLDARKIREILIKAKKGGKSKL
T1 sequence (P08659 whole entry): as above

Molecule	chaperone activity: suppression of the thermal aggregation of luciferase (0.1 µM, 42 °C, light scattering at 360 nm), different ratios up to a 40-fold molar excess, compared to wt-mTXNPx (% less active than wt-mTXNPx) [1]	stoichiometry N [2]	log2(H/L) of inter-protein cross-link Pep1-Pep1, heavy Red (42 °C) over light Red (30 °C) [3] [log2 ratio]	log2(H/L) of inter-protein cross-link Pep1-Pep2, heavy Red (30 °C) over light Red (42 °C) [3] [log2 ratio]	log2(H/L) of inter-protein cross-link Pep1-Pep2, heavy Red (42 °C) over light Red (30 °C) [3] [log2 ratio]
∆5mTXNPx, N-terminal truncation mutant lacking the first 5 residues of the mature protein (reduced) (from UniProt A0A6L0XFC6 33-226) (enzyme)	> 70				
reduced, decameric Leishmania infantum mitochondrial 2-Cys peroxiredoxin mTXNPx (mTXNPxred) (enzyme, Reduced form, decamer of five dimers; also called Prx1m; wt mTXNPx; source: E. coli BL21(DE3), purified; His tag removed with thrombin; reduced with 5 mM DTT; not shown: His6, N-terminal, cleaved; copies: 10) GSHMNLDYQMYRTATVREAAPQFSGQAVVNGAIKDINMNDYKGKYIVLFFYPMDFTFVCPTEIIAFSDRHADFEKLNTQVVAVSCDSVYSHLAWVNTPRKKGGLGEMHIPVLADKSMEIARDYGVLIEESGIALRGLFIIDKKGILRHSTINDLPVGRNVDEALRVLEAFQYADENGDAIPCGWKPGQPTLDTTKAGEFFEKNM		1 luciferase per mTXNPx decamer	-2.32	1.4	-1.55
